Data taken from patent US20210309735A1 (published 2021).

T1: mouse IL-17A (mouse, UniProt Q62386 26-158, limits assumed)
T1 sequence (looked up): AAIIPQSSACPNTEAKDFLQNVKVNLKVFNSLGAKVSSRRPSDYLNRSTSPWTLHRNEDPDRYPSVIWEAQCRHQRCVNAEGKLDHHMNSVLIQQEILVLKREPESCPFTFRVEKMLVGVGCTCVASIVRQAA

T2: human IL-17A (human, UniProt Q16552 20-155, limits assumed)
T2 construct: Bought from R&D Systems; also called IL-17 antigen (human IL17A)
T2 sequence (looked up): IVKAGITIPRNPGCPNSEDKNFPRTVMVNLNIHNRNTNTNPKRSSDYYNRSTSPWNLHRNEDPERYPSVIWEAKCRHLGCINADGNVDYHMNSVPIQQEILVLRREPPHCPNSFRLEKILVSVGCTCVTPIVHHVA


Key:
mouse IL-17A = target: T1, mouse IL-17A; test: ELISA, mouse IL-17A coated
human IL-17A [1] = target: T2, human IL-17A; test: blocking ELISA, IL-17RA coated; antibody 1 ug/ml pre-mixed with human IL-17A 0.1 ug/ml; bound IL-17A detected
Description: (§1) Recombinant human IL-17RA or recombinant human IL-17RC (1 μg/ml) were coated on the plate, overnight at 4° C. in the dark and then blocked with 2% BSA for 1 hour at room temperature to reduce non-specific binding. The antibodies PP10759-PP10768 (1 μg/ml) pre-mixed with human IL-17A (0.1 μg/ml final concentration) were added to the ELISA wells for 1 hour at room temperature. The plate was washed with PBS for three times, and then incubated with anti-IL17A polyclonal Ab-biotin (R&D Systems) for 1 hour followed by SAV-HRP. The plate was washed for three times with PBS. TMB, the HRP substrate, was added to each well for color development for 5 minutes at room temperature. Equal amount of 0.1N HCl stop solution was added to each well to terminate the reaction. Raw OD₄₅₀ data was collected by POLARstar Omega from BMG Labtech.
(§2) It can be seen that the antibodies PP10759-PP10768 can effectively block the interaction between IL-17A and IL-17RA as well as IL-17A and IL-17RC.

human IL-17A [2] = target: T2, human IL-17A; test: ELISA, human IL-17A coated at 1 ug/mL, anti-human IgG-HRP detection
Description: ELISA plates were coated with 1 μg/mL IL-17 antigen (human IL17A) (R&D Systems) and incubated at 4° C. in the dark overnight. Then it was washed once with 10 mM, pH 7.4 PBS/Tween (0.05%), blocked with PBST containing 2% BSA for 1 hour and incubated at room temperature for 1 h. The antibodies PP10759-PP10768 were diluted in 5-fold increments for a total of eleven data points and were added to the ELISA wells and incubated at room temperature for 1 hour. The plate was washed with PBS for three times, and then incubated with HRP conjugated goat anti-human IgG antibody for 1 hour. The plate was washed three times with PBS. TMB, the HRP substrate, was added to each well for color development for 5 minutes at room temperature. Equal amount of 0.1N HCl stop solution was added to each well to terminate the reaction. Raw OD₄₅₀ data was collected by POLARstar Omega (BMG Labtech). Besides, hFc isotope was regarded as control. It can be seen that the antibodies (i.e. PP10759-PP10768) bind to human IL-17A with high affinity.

human IL-17A [3] = target: T2, human IL-17A; test: blocking ELISA, IL-17RC coated; antibody 1 ug/ml pre-mixed with human IL-17A 0.1 ug/ml; bound IL-17A detected
Description: as §1, §2

human IL-17A [4] = target: T2, human IL-17A; test: BLI (Octet Red96), antibody captured on AHC biosensor, human IL-17A in solution, 1:1 model, 25 C
Description: Using the Octet method (Fortebio Octet®), the chimeric parental antibody and the […] (i.e. PP10759-PP10768) were evaluated with Octet Red96 at 25° C. These antibodies were captured on anti-Human Fc (AHC) biosensors at a concentration of 10 μg/mL. Loaded biosensors were then dipped into a dilution of antigen (human IL-17A (R&D Systems), 500 nM start, 1:3 down, 7 points). Kinetic constants were calculated using a monovalent (1:1) model. In FIG. 2A, Figure I, II, III and IV show the results of PP10759, PP10760, PP10761 and PP10762, respectively. In FIG. 2B, Figure I, II, III and IV show the results of PP10763, PP10764, PP10765 and PP10766, respectively. In FIG. 2B, Figure I and II show the results of PP10767 and PP10768, respectively. It can be seen that the antibodies (i.e. PP10759-PP10768) bind to IL-17A with high affinity. […] Secukinuma is a human IgG1κ monoclonal antibody that binds to IL-17A made by Novartis.

Binder	binding result (mouse IL-17A)	Blocking % (human IL-17A [1]) [%]	OD450 (human IL-17A [1]) [OD450]	EC50 (human IL-17A [2]) [ng/mL]	Blocking % (human IL-17A [3]) [%]	OD450 (human IL-17A [3]) [OD450]	Kd (human IL-17A [4]) [nM]	koff (human IL-17A [4]) [s⁻¹]	kon (human IL-17A [4]) [M⁻¹ s⁻¹]
PP10759 (antibody, human IgG4 S228P, kappa, V domains shown, expressed in HEK293; also called chimeric antibody PP10759; chimeric parental antibody) VH: EVQLVESGGGLVQPGGSLKLSCVASGFTFSTYGMSWVRQTPDKRLELVAIINHNGGSTFYPDSVKGRFTVSRDNAKNTLHLQMSSLKSEDTAMYYCARDPRHDGYFFDYWGQGTTLTVSS VL: DIQMTQSSPSFSVSLGDRVTITCKASEDIYDRLAWYQQKPGNAPRLLISGATSLETGIPSRFSGSRSGKDYTLDINSLQTEDAATYYCQQYWSVPWTFGGGTKLEIKR	no binding	99.5	0.0872	5.83	95.2	0.0888	1.1	0.00053	480000
PP10761 (antibody, human IgG4 S228P, kappa, V domains shown, Humanized, human IgG4/kappa; also called VH6665/VL6666) VH: EVQLVESGGGLVQPGGSLRLSCAASGFTFSTYGMSWVRQAPGKGLELVSIINHNGGSTFYPDSVKGRFTISRDNSKNTLYLQMNSLRAEDTAVYYCARDPRHDGYFFDYWGQGTLVTVSS VL: DIQMTQSPSSLSASVGDRVTITCQASEDIYDRLAWYQQKPGKAPKLLISGATSLETGVPSRFSGSGSGKDYTFTISSLQPEDIATYYCQQYWSVPWTFGGGTKVEIKR	no binding	99.7	0.0851	8.72	99.8	0.0688	< 0.001	< 1e-07	400000
PP10767 (antibody, human IgG4 S228P, kappa, V domains shown, Humanized, human IgG4/kappa; also called VH6667/VL6666) VH: EVQLVESGGGVVQPGRSLRLSCAASGFTFSTYGMSWVRQAPGKGLELVAIINHNGGSTFYPDSVKGRFTISRDNSKNTLYLQMNSLRAEDTAVYYCARDPRHDGYFFDYWGQGTLVTVSS VL: DIQMTQSPSSLSASVGDRVTITCQASEDIYDRLAWYQQKPGKAPKLLISGATSLETGVPSRFSGSGSGKDYTFTISSLQPEDIATYYCQQYWSVPWTFGGGTKVEIKR	no binding	98.1	0.105	7.71	99.9	0.0684	< 0.001	< 1e-07	360000
PP10764 (antibody, human IgG4 S228P, kappa, V domains shown, Humanized, human IgG4/kappa; also called VH6666/VL6666) VH: EVQLVESGGGLVQPGGSLRLSCAASGFTFSTYGMSWVRQAPGKGLELVAIINHNGGSTFYPDSVKGRFTVSRDNSKNTLYLQMNSLRAEDTAVYYCARDPRHDGYFFDYWGQGTLVTVSS VL: DIQMTQSPSSLSASVGDRVTITCQASEDIYDRLAWYQQKPGKAPKLLISGATSLETGVPSRFSGSGSGKDYTFTISSLQPEDIATYYCQQYWSVPWTFGGGTKVEIKR	no binding	96.5	0.126	6.61	98.9	0.0725	< 0.001	< 1e-07	450000
PP10763 (antibody, human IgG4 S228P, kappa, V domains shown, Humanized, human IgG4/kappa; also called VH6666/VL6665) VH: EVQLVESGGGLVQPGGSLRLSCAASGFTFSTYGMSWVRQAPGKGLELVAIINHNGGSTFYPDSVKGRFTVSRDNSKNTLYLQMNSLRAEDTAVYYCARDPRHDGYFFDYWGQGTLVTVSS VL: DIQMTQSPSSLSASVGDRVTITCQASEDIYDRLAWYQQKPGKAPKLLISGATSLETGVPSRFSGSGSGTDYTFTISSLQPEDIATYYCQQYWSVPWTFGGGTKVEIKR	no binding	90.9	0.104	7.28	98.9	0.0721	0.36	0.00016	460000
PP10765 (antibody, human IgG4 S228P, kappa, V domains shown, Humanized, human IgG4/kappa; also called VH6666/VL6667) VH: EVQLVESGGGLVQPGGSLRLSCAASGFTFSTYGMSWVRQAPGKGLELVAIINHNGGSTFYPDSVKGRFTVSRDNSKNTLYLQMNSLRAEDTAVYYCARDPRHDGYFFDYWGQGTLVTVSS VL: DIQMTQSPSSLSASVGDRVTITCRASEDIYDRLAWYQQKPGKAPNLLVSGATSLESGVPSRFSGSGSGKDYTLTISSLQPEDFATYYCQQYWSVPWTFGGGTKVEIKR	no binding	89.9	0.213	7.61	95.2	0.088	0.13	6.6e-05	500000
PP10760 (antibody, human IgG4 S228P, kappa, V domains shown, Humanized, human IgG4/kappa; also called VH6665/VL6665) VH: EVQLVESGGGLVQPGGSLRLSCAASGFTFSTYGMSWVRQAPGKGLELVSIINHNGGSTFYPDSVKGRFTISRDNSKNTLYLQMNSLRAEDTAVYYCARDPRHDGYFFDYWGQGTLVTVSS VL: DIQMTQSPSSLSASVGDRVTITCQASEDIYDRLAWYQQKPGKAPKLLISGATSLETGVPSRFSGSGSGTDYTFTISSLQPEDIATYYCQQYWSVPWTFGGGTKVEIKR	no binding	97.8	0.109	9.44	98	0.0762	0.31	0.00015	490000
PP10762 (antibody, human IgG4 S228P, kappa, V domains shown, Humanized, human IgG4/kappa; also called VH6665/VL6667) VH: EVQLVESGGGLVQPGGSLRLSCAASGFTFSTYGMSWVRQAPGKGLELVSIINHNGGSTFYPDSVKGRFTISRDNSKNTLYLQMNSLRAEDTAVYYCARDPRHDGYFFDYWGQGTLVTVSS VL: DIQMTQSPSSLSASVGDRVTITCRASEDIYDRLAWYQQKPGKAPNLLVSGATSLESGVPSRFSGSGSGKDYTLTISSLQPEDFATYYCQQYWSVPWTFGGGTKVEIKR	no binding	99.6	0.0846	8.26	99.5	0.0701	< 0.001	< 1e-07	440000
PP10766 (antibody, human IgG4 S228P, kappa, V domains shown, Humanized, human IgG4/kappa; also called VH6667/VL6665) VH: EVQLVESGGGVVQPGRSLRLSCAASGFTFSTYGMSWVRQAPGKGLELVAIINHNGGSTFYPDSVKGRFTISRDNSKNTLYLQMNSLRAEDTAVYYCARDPRHDGYFFDYWGQGTLVTVSS VL: DIQMTQSPSSLSASVGDRVTITCQASEDIYDRLAWYQQKPGKAPKLLISGATSLETGVPSRFSGSGSGTDYTFTISSLQPEDIATYYCQQYWSVPWTFGGGTKVEIKR	no binding	94.9	0.147	7.35	100	0.0682	< 0.001	< 1e-07	350000
PP10768 (antibody, human IgG4 S228P, kappa, V domains shown, Humanized, human IgG4/kappa; also called VH6667/VL6667) VH: EVQLVESGGGVVQPGRSLRLSCAASGFTFSTYGMSWVRQAPGKGLELVAIINHNGGSTFYPDSVKGRFTISRDNSKNTLYLQMNSLRAEDTAVYYCARDPRHDGYFFDYWGQGTLVTVSS VL: DIQMTQSPSSLSASVGDRVTITCRASEDIYDRLAWYQQKPGKAPNLLVSGATSLESGVPSRFSGSGSGKDYTLTISSLQPEDFATYYCQQYWSVPWTFGGGTKVEIKR	no binding	99.5	0.0869	7.67	99.9	0.0685	< 0.001	< 1e-07	370000
